Test results: patent US20240279298A1 (BEIJING TUO JIE BIOPHARMACEUTICAL CO. LTD., priority 2021, published 2024)
Values after ≈ are worked out from the molar mass of the structure shown. Where a SMILES comes first, the peptide text is derived from it. [ ]: non-standard residue; d: D form. Aib = CC(C)(N)C(=O)O

T1: human glucose-dependent insulinotropic polypeptide receptor (GIPR) (human, UniProt P48546 22-466)
T1 sequence (looked up): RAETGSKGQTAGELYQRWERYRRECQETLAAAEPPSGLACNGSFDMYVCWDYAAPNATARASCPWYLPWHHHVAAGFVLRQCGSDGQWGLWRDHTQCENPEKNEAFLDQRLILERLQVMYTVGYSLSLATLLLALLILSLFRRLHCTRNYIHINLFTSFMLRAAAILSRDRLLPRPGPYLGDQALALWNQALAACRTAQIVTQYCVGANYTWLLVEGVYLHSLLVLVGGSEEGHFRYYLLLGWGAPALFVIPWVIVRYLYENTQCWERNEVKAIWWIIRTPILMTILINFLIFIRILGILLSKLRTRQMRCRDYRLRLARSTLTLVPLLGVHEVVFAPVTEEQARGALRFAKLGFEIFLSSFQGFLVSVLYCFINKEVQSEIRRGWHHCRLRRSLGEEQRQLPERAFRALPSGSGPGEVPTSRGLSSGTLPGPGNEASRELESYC


Experiments:
[1] = Maximum solubility in phosphate buffer pH 7.4; format: physicochemical; conditions: phosphate buffer pH 7.4, room temperature
[2] = target: T2, human glucagon receptor (GCGR) (Homo sapiens, UniProt P47871); assay: Agonist activity assay for GCGR (cAMP HTRF); format: cell-based; conditions: normalized by the activity of the native glucagon
T2 construct: expressed in transfected cells
Description: The activation of GCGR by related compounds will stimulate the formation of cyclic adenosine monophosphate (cAMP) in cells. Thus, the receptor activity can be monitored by cAMP production in proper cells expressing the receptor. […] The cells were passaged at least once for subsequent tests. Before testing, the cells were trypsinized, centrifuged, washed once, and resuspended in serum-free DMEM/F12 medium. The cell density was adjusted, and the cells were plated in a 96-well plate at a density of 2,500 cells/5 μL/well. […] The mixture was mixed well by moderate vibration, and incubated for 1 hour at room temperature away from light.

[3] = target: human glucagon receptor (GCGR) (human, UniProt P47871 26-477); assay: cell-based or functional assay
[4] = target: human glucagon-like peptide-1 receptor (GLP-1R) (human, UniProt P43220 24-463); assay: cell-based or functional assay
[5] = target: T1, human glucose-dependent insulinotropic …; assay: cell-based or functional assay

Sequence of human glucagon receptor (GCGR) (human, UniProt P47871 26-477) (P47871 26-477): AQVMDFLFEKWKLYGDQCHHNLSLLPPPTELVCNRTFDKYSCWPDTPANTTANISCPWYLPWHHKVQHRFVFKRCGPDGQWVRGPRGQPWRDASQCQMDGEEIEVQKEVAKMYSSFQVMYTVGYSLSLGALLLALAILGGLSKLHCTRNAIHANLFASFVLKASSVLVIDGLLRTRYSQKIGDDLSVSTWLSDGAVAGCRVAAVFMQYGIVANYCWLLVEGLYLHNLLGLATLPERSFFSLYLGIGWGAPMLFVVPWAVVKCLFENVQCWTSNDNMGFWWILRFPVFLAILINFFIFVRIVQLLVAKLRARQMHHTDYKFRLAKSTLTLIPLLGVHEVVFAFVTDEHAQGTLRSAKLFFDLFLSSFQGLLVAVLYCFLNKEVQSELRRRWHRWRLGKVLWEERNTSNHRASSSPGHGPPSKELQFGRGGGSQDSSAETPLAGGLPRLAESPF
T2 sequence (P47871 26-477): as above

Molecule | solubility [1] | Relative activity [2] | solubility at 5 min [1] | Human GCGR receptor EC50 (nM), cAMP HTRF in CHO-K1/GCGR/CRE-Luc cells [3] | Relative activity (%) (normalized by the activity of the native glucagon), cAMP HTRF [3] | GLP-1R % Activity relative to native GLP-1, cAMP HTRF [4] | GLP-1R EC50 (nM), cAMP HTRF in CHO-GLP-1R cells [4] | GIPR % Activity relative to native GIP, cAMP HTRF [5] | GIPR EC50 (nM), cAMP HTRF in CHO-K1/GIPR cells [5]
CC(C)C[C@H](NC(=O)[C@H](Cc1ccc(O)cc1)NC(=O)[C@H](CCCCN)NC(=O)[C@H](CO)NC(=O)[C@H](Cc1ccc(O)cc1)NC(=O)[C@H](CC(=O)O)NC(=O)[C@H](CO)NC(=O)[C@@H](NC(=O)[C@H](Cc1ccccc1)NC(=O)[C@@H](NC(=O)CNC(=O)[C@H](CCC(N)=O)NC(=O)[C@H](CO)NC(=O)[C@@H](N)Cc1c[nH]cn1)[C@@H](C)O)[C@@H](C)O)C(=O)N[C@@H](CCC(=O)O)C(=O)N[C@@H](CO)C(=O)NC(C)(C)C(=O)N[C@@H](CCCNC(=N)N)C(=O)N[C@@H](C)C(=O)N[C@@H](CCC(=O)O)C(=O)N[C@@H](CC(=O)O)C(=O)N[C@@H](Cc1ccccc1)C(=O)N[C@H](C(=O)N[C@@H](CCCNC(=N)N)C(=O)N[C@@H](Cc1c[nH]c2ccccc12)C(=O)N[C@@H](CC(C)C)C(=O)N[C@@H](CCC(=O)O)C(=O)N[C@@H](CO)C(=O)N[C@H](C(=O)O)[C@@H](C)O)C(C)C [Compound 38] (H-HSQGTFTSDYSKYLES[Aib]RAEDFVRWLEST-OH) | > 16400 µg/mL |  |  |  |  |  |  |  | 
CC(C)C[C@H](NC(=O)[C@H](Cc1ccc(O)cc1)NC(=O)[C@H](CCCCN)NC(=O)[C@H](CO)NC(=O)[C@H](Cc1ccc(O)cc1)NC(=O)[C@H](CC(=O)O)NC(=O)[C@H](CO)NC(=O)[C@@H](NC(=O)[C@H](Cc1ccccc1)NC(=O)[C@@H](NC(=O)CNC(=O)[C@H](Cc1c[nH]cn1)NC(=O)[C@H](CO)NC(=O)[C@@H](N)Cc1c[nH]cn1)[C@@H](C)O)[C@@H](C)O)C(=O)N[C@@H](CC(=O)O)C(=O)N[C@@H](CC(C)C)C(=O)NC(C)(C)C(=O)N[C@@H](CCCNC(=N)N)C(=O)N[C@@H](C)C(=O)N[C@@H](CCC(N)=O)C(=O)N[C@@H](CCC(=O)O)C(=O)N[C@@H](Cc1ccccc1)C(=O)N[C@H](C(=O)N[C@@H](CCC(N)=O)C(=O)N[C@@H](Cc1c[nH]c2ccccc12)C(=O)N[C@@H](CC(C)C)C(=O)N[C@@H](CCC(=O)O)C(=O)N[C@@H](CO)C(=O)N[C@H](C(=O)O)[C@@H](C)O)C(C)C [Compound 43] (H-HSHGTFTSDYSKYLDL[Aib]RAQEFVQWLEST-OH) |  | 371% | 1620 µg/mL (≈ 472 µM) |  |  |  |  |  | 
CC(C)C[C@H](NC(=O)[C@H](Cc1ccc(O)cc1)NC(=O)[C@H](CCCCN)NC(=O)[C@H](CO)NC(=O)[C@H](Cc1ccc(O)cc1)NC(=O)[C@H](CC(=O)O)NC(=O)[C@H](CO)NC(=O)[C@@H](NC(=O)[C@H](Cc1ccccc1)NC(=O)[C@@H](NC(=O)CNC(=O)[C@H](Cc1c[nH]cn1)NC(=O)[C@H](CO)NC(=O)[C@@H](N)Cc1c[nH]cn1)[C@@H](C)O)[C@@H](C)O)C(=O)N[C@@H](CC(=O)O)C(=O)N[C@@H](CC(C)C)C(=O)NC(C)(C)C(=O)N[C@@H](CCCNC(=N)N)C(=O)N[C@@H](C)C(=O)N[C@@H](CCC(N)=O)C(=O)N[C@@H](CCC(=O)O)C(=O)N[C@@H](Cc1ccccc1)C(=O)N[C@H](C(=O)N[C@@H](CCC(=O)O)C(=O)N[C@@H](Cc1c[nH]c2ccccc12)C(=O)N[C@@H](CC(C)C)C(=O)N[C@@H](CCC(=O)O)C(=O)N[C@@H](CO)C(=O)N[C@H](C(=O)O)[C@@H](C)O)C(C)C [Compound 47] (H-HSHGTFTSDYSKYLDL[Aib]RAQEFVEWLEST-OH) |  | 253% | > 2070 µg/mL |  |  |  |  |  | 
H-HSQGTFTSDYSKYLDL[Aib]RAQEFVQWLEST-OH (SMILES CC(C)C[C@H](NC(=O)[C@H](Cc1ccc(O)cc1)NC(=O)[C@H](CCCCN)NC(=O)[C@H](CO)NC(=O)[C@H](Cc1ccc(O)cc1)NC(=O)[C@H](CC(=O)O)NC(=O)[C@H](CO)NC(=O)[C@@H](NC(=O)[C@H](Cc1ccccc1)NC(=O)[C@@H](NC(=O)CNC(=O)[C@H](CCC(N)=O)NC(=O)[C@H](CO)NC(=O)[C@@H](N)Cc1c[nH]cn1)[C@@H](C)O)[C@@H](C)O)C(=O)N[C@@H](CC(=O)O)C(=O)N[C@@H](CC(C)C)C(=O)NC(C)(C)C(=O)N[C@@H](CCCNC(=N)N)C(=O)N[C@@H](C)C(=O)N[C@@H](CCC(N)=O)C(=O)N[C@@H](CCC(=O)O)C(=O)N[C@@H](Cc1ccccc1)C(=O)N[C@H](C(=O)N[C@@H](CCC(N)=O)C(=O)N[C@@H](Cc1c[nH]c2ccccc12)C(=O)N[C@@H](CC(C)C)C(=O)N[C@@H](CCC(=O)O)C(=O)N[C@@H](CO)C(=O)N[C@H](C(=O)O)[C@@H](C)O)C(C)C) [Glucagon analog compound 40] |  |  |  | 0.06 nM | 318% | 0.192% | 140 nM | < 0.07% | > 100 nM
H-HSQGTFTSDYSKYLDV[Aib]RAQEFVQWLEST-OH (SMILES CC(C)C[C@H](NC(=O)[C@H](Cc1c[nH]c2ccccc12)NC(=O)[C@H](CCC(N)=O)NC(=O)[C@@H](NC(=O)[C@H](Cc1ccccc1)NC(=O)[C@H](CCC(=O)O)NC(=O)[C@H](CCC(N)=O)NC(=O)[C@H](C)NC(=O)[C@H](CCCNC(=N)N)NC(=O)C(C)(C)NC(=O)[C@@H](NC(=O)[C@H](CC(=O)O)NC(=O)[C@H](CC(C)C)NC(=O)[C@H](Cc1ccc(O)cc1)NC(=O)[C@H](CCCCN)NC(=O)[C@H](CO)NC(=O)[C@H](Cc1ccc(O)cc1)NC(=O)[C@H](CC(=O)O)NC(=O)[C@H](CO)NC(=O)[C@@H](NC(=O)[C@H](Cc1ccccc1)NC(=O)[C@@H](NC(=O)CNC(=O)[C@H](CCC(N)=O)NC(=O)[C@H](CO)NC(=O)[C@@H](N)Cc1c[nH]cn1)[C@@H](C)O)[C@@H](C)O)C(C)C)C(C)C)C(=O)N[C@@H](CCC(=O)O)C(=O)N[C@@H](CO)C(=O)N[C@H](C(=O)O)[C@@H](C)O) [Glucagon analog compound 41] |  |  |  | 0.058 nM | 333% | 0.231% | 116 nM | < 0.07% | > 100 nM
